Tested on: MS2 coat protein
Assay: apparent KD of MS2 coat protein; designed switch direction (-1 OFF switch, 1 ON switch): -1; higher = weaker reporter binding
Summary of the method: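 SNAP-549-labelled MS2 coat protein was titrated, doubling from 0.7 or 1.5 nM to 3 µM, over designed RNA switches transcribed on Illumina chips by stalled E. coli RNA polymerase. Runs were done without input, with 200 uM small-molecule ligand, or with an oligonucleotide input. Apparent KD is the per-design median over clusters of curve-fitted normalised fluorescence.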

[1] = Eterna round: R95, input ligand: microRNA oligo, concentration not stated
[2] = Eterna round: R95, input ligand: FMN 200 uM
[3] = Eterna round: R95, input ligand: none
[4] = input ligand: microRNA oligo, concentration not stated

Sequence	apparent KD of MS2 coat protein (input ligand: FMN 200 uM)	apparent KD of MS2 coat protein (input ligand: none)	other results
CAAAGAUAAGGAUAUUGAAGGUUCGACAUGAGGAUCACCCAUGUUAUGUUGGAAAAGGGACAAGAAGGUAUGAAAU [salish99_ex5_r4_213] (Eterna round: R97, puzzle: Exclusion 5)	41.5 nM	40.3 nM	–
CCCUAGGGAGGAUAUCCAAUAUAUGACAUGAGGAUCACCCAUGUUUCCACUCGUACCUCCGGAGAAGGCCCAUACC [Ex5 #10] (Eterna round: R97, puzzle: Exclusion 5)	28 nM	28.4 nM	–
CAUCACUGCUAGGAUAUCGAGUCGGAGAAUACUUGAGAAGGAGCUACAUGAGGAUCACCCAUGUCCUCCGCGAU [Eternabot (L2) Solution 72] (Eterna round: R97, puzzle: Exclusion 6)	47.3 nM	18.8 nM	–
CGUACUGAAGUAAGGAUAUUGUCUCGGAUACGAAACAAGAAGGUACAUGAGGAUCACCCAUGUUGACAGUACGA [Malc #30 mod 8] (puzzle: Brourd's mod of Exclusion 4)	–	–	apparent KD of MS2 coat protein [1]: 14 nM
AGUUGCGCAGGAUAUACAUGAGGAUCACCCAUGUGAGAGAAAUAAGUGAGGAAGAAAAGUAGAAGGGCGUGACG [Mat - Exclusion 3 - Mod of Salish D73] (puzzle: Exclusion 3)	–	–	apparent KD of MS2 coat protein [2]: 281 nM; apparent KD of MS2 coat protein [1]: 53.8 nM; apparent KD of MS2 coat protein [3]: 57.3 nM
UAUUAGCAAGCGAGAUCCUACAUGAGGAUCACCCAUGUGCUCGUCUUGUAAGGUACUGUGACGAAAGUCACGGUACC [Eli 91 v38] (Eterna round: R97, puzzle: Sensor, turn-off variant 1)	16.5 nM	15.6 nM	–
UUCAUGUGAGGAUAUAGUACUCCUUCUAUUAUUUUUGAGUAUUAGAAGGCACAUGAGGAUCACCCAUGUAGUAC [Ex4 - 3 - 39] (puzzle: Exclusion 4)	–	–	apparent KD of MS2 coat protein [1]: 24.6 nM
UUAUACGGUGAGGAUAUCUUCACUAAAGUGUGAAGAGAAGGCGCUACAUGAGGAUCACCCAUGUCUAUGGGCAG [Ex-6 Malc#17] (puzzle: Exclusion 6)	–	–	apparent KD of MS2 coat protein [2]: 118 nM; apparent KD of MS2 coat protein [1]: 187 nM; apparent KD of MS2 coat protein [3]: 156 nM
AUGGGUCCUCUCGGAGCUACAUGAGGAUCACCCAUGUGUAUUGAGGAUAUCCACUGCUCAGGACUGGAGAAGGCAGUGUACUGU [Ex NG3 #88] (Eterna round: R96, puzzle: Exclusion NG 3)	56.2 nM	59.9 nM	apparent KD of MS2 coat protein [4]: 33.5 nM
AGUACUAUGCGAGCUGACUUGCGUAGUGCAGCAAGUGAAACAUGAGGAUCACCCAUGUCCUCAUUUGCUCGUCUUAU [Mat - Sensor v3 - Turn-off var 2 - D1] (Eterna round: R96, puzzle: Sensor v3, turn-off variant 2)	31.1 nM	34.1 nM	apparent KD of MS2 coat protein [4]: 662 nM
UAAAGUAUAUAGGAUAUCUAGCUGGAAACAGCUAGAGAAGGAUGUACAUGAGGAUCACCCAUGUAAAUCGUGAA [Ex6/13-A1] (Eterna round: R97, puzzle: Exclusion 6)	16.2 nM	13 nM	–
UUAAAUCAUGUAGGAUAUGCUUUGCAAAGCGAAGCAGAAGGACAUGAGGAUCACCCAUGUGCUAGCGUCCGAGAACGGAUGCAA [Mat - Exclusion NG 1 - Mod of JL - D65] (Eterna round: R96, puzzle: Exclusion NG 1)	501 nM	61.5 nM	apparent KD of MS2 coat protein [4]: 60.6 nM
GAAAAGGUAGGAUAUACGAAAAAAAAGGGUAGAAAAAAAACACAUGAGGAUCACCCAUGUAGAAGGACCAGAAG [salish99_ex2_r3_038] (puzzle: Exclusion 2)	–	–	apparent KD of MS2 coat protein [2]: 72.8 nM; apparent KD of MS2 coat protein [1]: 27.9 nM; apparent KD of MS2 coat protein [3]: 17.3 nM
AAGAAACAUGAGGAUCACCCAUGUGAGGAUAUGAACAAGAAAAGAAAAGAAAGAAGAAUCAGAAGGCACAAAGG [salish99-ex1_r3_047] (puzzle: Exclusion 1)	–	–	apparent KD of MS2 coat protein [2]: 102 nM; apparent KD of MS2 coat protein [1]: 49.2 nM; apparent KD of MS2 coat protein [3]: 84.7 nM
AAGAUACAUGAGGAUCACCCAUGUGAGGAUAUGAGCACGCCGGUGACGGUGAUAAGAAUCAGAAGGCACAAUGG [JL-ex1-4.32 salish99 mod] (Eterna round: R97, puzzle: Exclusion 1)	151 nM	327 nM	–
AUAAUGUCAGGAUAUCGAACUUACUACCUCGGUAGUAAGUUCGAGAAGGGACAUGAGGAUCACCCAUGUGAUCA [E4/1-A5] (Eterna round: R97, puzzle: Exclusion 4)	68.5 nM	195 nM	–
AACCUUUAGUUAGGAUAUCGCAUCACCGUCAAGUGAGAAGGGACAUGAGGAUCACCCAUGUCUUCCGUGGGCUACACUGCUUCU [Eternabot solution 5] (Eterna round: R96, puzzle: Exclusion NG 1)	19 nM	27.4 nM	apparent KD of MS2 coat protein [4]: 19.4 nM
AAAGCUGCAGGAUAUGCAUGUGUGGACAUGAGGAUCACCCAUGUGAGCGUAUCAUGUCGAGCAGAAGGGCAGUAAA [Atquer] (Eterna round: R97, puzzle: Exclusion 5)	172 nM	630 nM	–

Sequence	apparent KD of MS2 coat protein (input ligand: FMN 200 uM)	apparent KD of MS2 coat protein (input ligand: none)	other results
CGGUGACAUGAGGAUCACCCAUGUCAGGAUAUCCAGGUCGACAAUGAGCUGUACGAUUGGAGAAGGGAUACGGG [EX1 C.9] (Eterna round: R97, puzzle: Exclusion 1)	20.6 nM	23.7 nM	–
AGUUGUUGCGCAGGAUAUGAGGAUCACCCAUAGAAGGAUAUCGAAAGAGAAGGUCUGAGGAUUACCCAGAAGGGCGUGAUGACA [pwkr exNG2 2xF5 2xFMN.8] (Eterna round: R96, puzzle: Exclusion NG 2)	905 nM	184 nM	apparent KD of MS2 coat protein [4]: 130 nM
UUUUAGUCAGGAUAUACAUGAGGAUCACCCAUGUAAAAUUUUAAUUUAAUUUUAAGGUGUAGAAGGGACCACCC [Ex3 #14] (Eterna round: R97, puzzle: Exclusion 3)	31.2 nM	35.5 nM	–
CUUCGUAUAGAGGAUAUAGGAUACGAAAGUGUCCUAGAAGGCUGUACAUGAGGAUCACCCAUGUACUUCAGAUC [Exclusion 6 - B - 14:e] (puzzle: Exclusion 6)	–	–	apparent KD of MS2 coat protein [1]: 11.7 nM
UAAUUUUUAGUAAGGAUAUCGGUCCCAAGGGACAACGAGAAGGUACAUGAGGAUCACCCAUGUGACGAAAGAAU [Mod of Zala 9 - Jieux - Brourd's Mod of Exclusion 4] (Eterna round: R97, puzzle: Brourd's mod of Exclusion 4)	35.6 nM	15.5 nM	–
AAGAAACAUGAGGAUCACCCAUGUGAGGAUAUGAAAAAGAAAAGAAAAGAAAGAAGAAUCAGAAGGCACAAAGG [Nebkaure Khety II] (Eterna round: R96, puzzle: Exclusion 1)	–	–	apparent KD of MS2 coat protein [4]: 24.3 nM
GAAGAGACAGGAUAUACAUGAGGAUCACCCAUGUGAGGAGGUUGGAGGCGGAGGAGGUGUAGAAGGGUCAAAGA [JR_Exclu3_Sub021] (puzzle: Exclusion 3)	–	–	apparent KD of MS2 coat protein [2]: 41.6 nM; apparent KD of MS2 coat protein [1]: 29.7 nM; apparent KD of MS2 coat protein [3]: 38.8 nM
AGUUGGCGAGGAUAUACAUGAGGAUCACCCAUGUGAGAGGUACUAGUGAGGUCGAUUAGUAGAAGGCGCUGACA [Mat X3R4 m10] (Eterna round: R97, puzzle: Exclusion 3)	2100 nM	48.3 nM	–
GGACGGAAAGUGAGGAUAUGCUCUACCUCGGUAGAGCAGAAGGCACAUGAGGAUCACCCAUGUGAAAACUGUUC [Omei Ex4B B30] (Eterna round: R97, puzzle: Brourd's mod of Exclusion 4)	27.9 nM	15.2 nM	–
AGUAGUUGUUUCCGUUCUUACAUGAGGAUCACCCAUGUUUCUUGACGUGCACGCGAUGCUCGUCAGACUACCAGAUG [salish99_TOv1_r3_057] (Eterna round: R96, puzzle: Sensor v3, turn-off variant 1)	60.5 nM	57 nM	apparent KD of MS2 coat protein [4]: 37.4 nM
AAUAACAGAGGAUAUACUAUUUUAUGUGUUUGUUAUUUUGAACAUGAGGAUCACCCAUGUAGAAGGCUGAUUGA [JMF 77] (puzzle: Exclusion 2)	–	–	apparent KD of MS2 coat protein [1]: 41.1 nM
ACAUGAGGAUCACCCAUGUGACCACAAUGGCUGAUAUAGAAACAGGAUAUUCGUGAAUAUCUAACGAAGAAGGGUUAUGACUGG [Deportation 65 - Jieux - Exclusion NG 3] (Eterna round: R96, puzzle: Exclusion NG 3)	–	–	apparent KD of MS2 coat protein [4]: 61 nM
ACAUGAUACUAGGAUAUCAGCAUACUUCAAUGUUGAGAAGGAGUAACAUGAGGAUCACCCAUGUAUCCAACAUG [Exclusion 6 - 4:b] (puzzle: Exclusion 6)	–	–	apparent KD of MS2 coat protein [1]: 43.5 nM
AUUAUAUAGUCAGGAUAUAGAAUAUUAUUUUAACAUGAGGAUCACCCAUGUAACCUUAUGUGUAGCUAGAAGGGACAUUUAUUA [Title] (Eterna round: R96, puzzle: Exclusion NG 2)	–	–	apparent KD of MS2 coat protein [4]: 76.6 nM
ACAGAGUCAGGAUAUCGCCGUGGCAGUCUCAACCAGCGGAACGAGAAGGGACAUGAGGAUCACCCAUGUCUGUU [Eternabot (Original) Solution 36] (Eterna round: R97, puzzle: Exclusion 4)	20.7 nM	18.6 nM	–
CGGCGACAUGAGGAUCACCCAUGUGAGGAUAUGACGGGAAAAGCGUGAGCAGUUUGUGGCAGAAGGCGCGUAGG [salish99_ex1_r4_083] (Eterna round: R97, puzzle: Exclusion 1)	23.5 nM	117 nM	–
CAUGAAGACAAGGAUAUCCGAAUGACGUAAGAAGGAGAAGGUGUCACAUGAGGAUCACCCAUGUGGGAUCUCUG [EX6 B.15] (Eterna round: R97, puzzle: Exclusion 6)	138 nM	23.9 nM	–

— the supplement of paper PMC9170038
